# Data published in PMC11189624 (2024).
# B1: GST-Mlph-ABD (the GST-tagged ABD of Mlph, residues 401–590) (protein)
# chain: SSEDETKPDGTFLGGSPKVCTDTGHMETQERNPRSPGNPARPTKSTDEELSEMEDRVAMTASEVQQAESEISDIESRIAALRAAGLTVKPSGKPRRKSGIPIFLPRVTEKLDRIPKTPPADPDDQAKMPKATTAVPSLLRRKYSPSSQGVDSGSFDRKSVYRGSLTQRNPNGRRGTARHIFAKPVMAQQP
# Biological target: F-actin (rabbit skeletal actin) (Oryctolagus cuniculus (Rabbit), UniProt P68135)
# Assay: F-actin co-sedimentation (SDS-PAGE/CBB); actin in filamentous form; binding antagonized by Myo5a-MTD (mutually exclusive with exon-G)
binder,measurement,value
B1,binding result,binds
